± gives the uncertainty stated by the source.
B1: library; numbered along this chain (parent)
chain: MEVVDPQQLGMFTEGELMSVGMDTFIHRIDSTEVIYQPRRKRAKLIGKYLMGDLLGEGSYGKVKEVLDSETLCRRAVKILKKKKLRRIPNGEANVKKEIQLLRRLRHKNVIQLVDVLYNEEKQKMYMVMEYCVCGMQEMLDSVPEKRFPVCQAHGYFCQLIDGLEYLHSQGIVHKDIKPGNLLLTTGGTLKISDLGVAEALHPFAADDTCRTSQGSPAFQPPEIANGLDTFSGFKVDIWSAGVTLYNITTGLYPFEGDNIYKLFENIGKGSYAIPGDCGPPLSDLLKGMLEYEPAKRFSIRQIRQHSWFRKKHPPAEAPVPIPPSPDTKDRWRSMTVVPYLEDLHGADEDEDLFDIEDDIIYTQDFTVPGQVPEEEASHNGQRRGLPKAVCMNGTEAAQLSTKSRAEGRAPNPARKACSASSKIRRLSACKQQ

Variants of: B1
Assay: STK11 functional score (HeLa growth suppression), rescaled enrichment; synonymous median = 1, nonsense median = 0 (normalised score)
Details: with HeLa; variant type: missense
How it was run: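 HeLa cells carrying an AAVS1 landing pad received codon-optimised STK11 libraries made by codon randomisation (POPCode), integrated by Bxb1, with three regions each transfected three times. Integrants that were BFP-negative and mCherry-positive were sorted by FACS 4–5 days after electroporation and then grown for about two weeks. Tiled amplicons from gDNA were sequenced on NextSeq at ~2 million reads per tile. The functional score is a wild-type-corrected log ratio of post- to pre-selection counts, rescaled to the synonymous and nonsense medians, merged across codons and replicate transfections, and given a bootstrapped error.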

Compared with MEVVDPQQLGMFTEGELMSVGMDTFIHRIDSTEVIYQPRRKRAKLIGKYLMGDLLGEGSYGKVKEVLDSETLCRRAVKILKKKKLRRIPNGEANVKKEIQLLRTLRHKNVIQLVDVLYNEEKQKMYMVMEYCVCGMQEMLDSVPEKRFPVCQAHGYFCQLIDGLEYLHSQGIVHKDIKPGNLLLTTGGTLKISDLGVAEALHPFAADDTCRTSQGSPAFQPPEIANGLDTFSGFKVDIWSAGVTLYNITTGLYPFEGDNIYKLFENIGKGSYAIPGDCGPPLSDLLKGMLEYEPAKRFSIRQIRQHSWFRKKHPPAEAPVPIPPSPDTKDRWRSMTVVPYLEDLHGADEDEDLFDIEDDIIYTQDFTVPGQVPEEEASHNGQRRGLPKAVCMNGTEAAQLSTKSRAEGRAPNPARKACSASSKIRRLSACKQQ [R104T], MEVVDPQQLGMFTEGELMSVGMDTFIHRIDSTEVIYQPRRKRAKLIGKYLMGDLLGEGSYGKVKEVLDSETLCRRAVKILKKKKLRRIPNGEANVKKEIQLLRYLRHKNVIQLVDVLYNEEKQKMYMVMEYCVCGMQEMLDSVPEKRFPVCQAHGYFCQLIDGLEYLHSQGIVHKDIKPGNLLLTTGGTLKISDLGVAEALHPFAADDTCRTSQGSPAFQPPEIANGLDTFSGFKVDIWSAGVTLYNITTGLYPFEGDNIYKLFENIGKGSYAIPGDCGPPLSDLLKGMLEYEPAKRFSIRQIRQHSWFRKKHPPAEAPVPIPPSPDTKDRWRSMTVVPYLEDLHGADEDEDLFDIEDDIIYTQDFTVPGQVPEEEASHNGQRRGLPKAVCMNGTEAAQLSTKSRAEGRAPNPARKACSASSKIRRLSACKQQ [R104Y] is lower in STK11 functional score: 1.3 ± 0.34 for the first, 0.684 ± 0.14 for the second.

MEVVDPQQLGMFTEGELMSVGMDTFIHRIDSTEVIYQPRRKRAKLIGKYLMGDLLGEGSYGKVKEVLDSETLCRRAVKILKKKKLRRIPNGEANVKKEIQLLRSLRHKNVIQLVDVLYNEEKQKMYMVMEYCVCGMQEMLDSVPEKRFPVCQAHGYFCQLIDGLEYLHSQGIVHKDIKPGNLLLTTGGTLKISDLGVAEALHPFAADDTCRTSQGSPAFQPPEIANGLDTFSGFKVDIWSAGVTLYNITTGLYPFEGDNIYKLFENIGKGSYAIPGDCGPPLSDLLKGMLEYEPAKRFSIRQIRQHSWFRKKHPPAEAPVPIPPSPDTKDRWRSMTVVPYLEDLHGADEDEDLFDIEDDIIYTQDFTVPGQVPEEEASHNGQRRGLPKAVCMNGTEAAQLSTKSRAEGRAPNPARKACSASSKIRRLSACKQQ [R104S] and MEVVDPQQLGMFTEGELMSVGMDTFIHRIDSTEVIYQPRRKRAKLIGKYLMGDLLGEGSYGKVKEVLDSETLCRRAVKILKKKKLRRIPNGEANVKKEIQLLRVLRHKNVIQLVDVLYNEEKQKMYMVMEYCVCGMQEMLDSVPEKRFPVCQAHGYFCQLIDGLEYLHSQGIVHKDIKPGNLLLTTGGTLKISDLGVAEALHPFAADDTCRTSQGSPAFQPPEIANGLDTFSGFKVDIWSAGVTLYNITTGLYPFEGDNIYKLFENIGKGSYAIPGDCGPPLSDLLKGMLEYEPAKRFSIRQIRQHSWFRKKHPPAEAPVPIPPSPDTKDRWRSMTVVPYLEDLHGADEDEDLFDIEDDIIYTQDFTVPGQVPEEEASHNGQRRGLPKAVCMNGTEAAQLSTKSRAEGRAPNPARKACSASSKIRRLSACKQQ [R104V] are within error of each other in STK11 functional score: 0.76 ± 0.2 for the first, 0.88 ± 0.21 for the second.

MEVVDPQQLGMFTEGELMSVGMDTFIHRIDSTEVIYQPRRKRAKLIGKYLMGDLLGEGSYGKVKEVLDSETLCRRAVKILKKKKLRRIPNGEANVKKEIQLLRQLRHKNVIQLVDVLYNEEKQKMYMVMEYCVCGMQEMLDSVPEKRFPVCQAHGYFCQLIDGLEYLHSQGIVHKDIKPGNLLLTTGGTLKISDLGVAEALHPFAADDTCRTSQGSPAFQPPEIANGLDTFSGFKVDIWSAGVTLYNITTGLYPFEGDNIYKLFENIGKGSYAIPGDCGPPLSDLLKGMLEYEPAKRFSIRQIRQHSWFRKKHPPAEAPVPIPPSPDTKDRWRSMTVVPYLEDLHGADEDEDLFDIEDDIIYTQDFTVPGQVPEEEASHNGQRRGLPKAVCMNGTEAAQLSTKSRAEGRAPNPARKACSASSKIRRLSACKQQ [R104Q] and MEVVDPQQLGMFTEGELMSVGMDTFIHRIDSTEVIYQPRRKRAKLIGKYLMGDLLGEGSYGKVKEVLDSETLCRRAVKILKKKKLRRIPNGEANVKKEIQLLRRARHKNVIQLVDVLYNEEKQKMYMVMEYCVCGMQEMLDSVPEKRFPVCQAHGYFCQLIDGLEYLHSQGIVHKDIKPGNLLLTTGGTLKISDLGVAEALHPFAADDTCRTSQGSPAFQPPEIANGLDTFSGFKVDIWSAGVTLYNITTGLYPFEGDNIYKLFENIGKGSYAIPGDCGPPLSDLLKGMLEYEPAKRFSIRQIRQHSWFRKKHPPAEAPVPIPPSPDTKDRWRSMTVVPYLEDLHGADEDEDLFDIEDDIIYTQDFTVPGQVPEEEASHNGQRRGLPKAVCMNGTEAAQLSTKSRAEGRAPNPARKACSASSKIRRLSACKQQ [L105A] are within error of each other in STK11 functional score: 1.21 ± 0.56 for the first, 1.32 ± 0.18 for the second.

MEVVDPQQLGMFTEGELMSVGMDTFIHRIDSTEVIYQPRRKRAKLIGKYLMGDLLGEGSYGKVKEVLDSETLCRRAVKILKKKKLRRIPNGEANVKKEIQLLRRDRHKNVIQLVDVLYNEEKQKMYMVMEYCVCGMQEMLDSVPEKRFPVCQAHGYFCQLIDGLEYLHSQGIVHKDIKPGNLLLTTGGTLKISDLGVAEALHPFAADDTCRTSQGSPAFQPPEIANGLDTFSGFKVDIWSAGVTLYNITTGLYPFEGDNIYKLFENIGKGSYAIPGDCGPPLSDLLKGMLEYEPAKRFSIRQIRQHSWFRKKHPPAEAPVPIPPSPDTKDRWRSMTVVPYLEDLHGADEDEDLFDIEDDIIYTQDFTVPGQVPEEEASHNGQRRGLPKAVCMNGTEAAQLSTKSRAEGRAPNPARKACSASSKIRRLSACKQQ [L105D] and MEVVDPQQLGMFTEGELMSVGMDTFIHRIDSTEVIYQPRRKRAKLIGKYLMGDLLGEGSYGKVKEVLDSETLCRRAVKILKKKKLRRIPNGEANVKKEIQLLRRMRHKNVIQLVDVLYNEEKQKMYMVMEYCVCGMQEMLDSVPEKRFPVCQAHGYFCQLIDGLEYLHSQGIVHKDIKPGNLLLTTGGTLKISDLGVAEALHPFAADDTCRTSQGSPAFQPPEIANGLDTFSGFKVDIWSAGVTLYNITTGLYPFEGDNIYKLFENIGKGSYAIPGDCGPPLSDLLKGMLEYEPAKRFSIRQIRQHSWFRKKHPPAEAPVPIPPSPDTKDRWRSMTVVPYLEDLHGADEDEDLFDIEDDIIYTQDFTVPGQVPEEEASHNGQRRGLPKAVCMNGTEAAQLSTKSRAEGRAPNPARKACSASSKIRRLSACKQQ [L105M] are within error of each other in STK11 functional score: 0.494 ± 0.2 for the first, 1.18 ± 0.74 for the second.

First: MEVVDPQQLGMFTEGELMSVGMDTFIHRIDSTEVIYQPRRKRAKLIGKYLMGDLLGEGSYGKVKEVLDSETLCRRAVKILKKKKLRRIPNGEANVKKEIQLLRRIRHKNVIQLVDVLYNEEKQKMYMVMEYCVCGMQEMLDSVPEKRFPVCQAHGYFCQLIDGLEYLHSQGIVHKDIKPGNLLLTTGGTLKISDLGVAEALHPFAADDTCRTSQGSPAFQPPEIANGLDTFSGFKVDIWSAGVTLYNITTGLYPFEGDNIYKLFENIGKGSYAIPGDCGPPLSDLLKGMLEYEPAKRFSIRQIRQHSWFRKKHPPAEAPVPIPPSPDTKDRWRSMTVVPYLEDLHGADEDEDLFDIEDDIIYTQDFTVPGQVPEEEASHNGQRRGLPKAVCMNGTEAAQLSTKSRAEGRAPNPARKACSASSKIRRLSACKQQ [L105I]
Second: MEVVDPQQLGMFTEGELMSVGMDTFIHRIDSTEVIYQPRRKRAKLIGKYLMGDLLGEGSYGKVKEVLDSETLCRRAVKILKKKKLRRIPNGEANVKKEIQLLRRPRHKNVIQLVDVLYNEEKQKMYMVMEYCVCGMQEMLDSVPEKRFPVCQAHGYFCQLIDGLEYLHSQGIVHKDIKPGNLLLTTGGTLKISDLGVAEALHPFAADDTCRTSQGSPAFQPPEIANGLDTFSGFKVDIWSAGVTLYNITTGLYPFEGDNIYKLFENIGKGSYAIPGDCGPPLSDLLKGMLEYEPAKRFSIRQIRQHSWFRKKHPPAEAPVPIPPSPDTKDRWRSMTVVPYLEDLHGADEDEDLFDIEDDIIYTQDFTVPGQVPEEEASHNGQRRGLPKAVCMNGTEAAQLSTKSRAEGRAPNPARKACSASSKIRRLSACKQQ [L105P]
The STK11 functional score of the first is higher: 1.57 ± 0.36 for the first, 0.588 ± 0.23 for the second.

MEVVDPQQLGMFTEGELMSVGMDTFIHRIDSTEVIYQPRRKRAKLIGKYLMGDLLGEGSYGKVKEVLDSETLCRRAVKILKKKKLRRIPNGEANVKKEIQLLRRRRHKNVIQLVDVLYNEEKQKMYMVMEYCVCGMQEMLDSVPEKRFPVCQAHGYFCQLIDGLEYLHSQGIVHKDIKPGNLLLTTGGTLKISDLGVAEALHPFAADDTCRTSQGSPAFQPPEIANGLDTFSGFKVDIWSAGVTLYNITTGLYPFEGDNIYKLFENIGKGSYAIPGDCGPPLSDLLKGMLEYEPAKRFSIRQIRQHSWFRKKHPPAEAPVPIPPSPDTKDRWRSMTVVPYLEDLHGADEDEDLFDIEDDIIYTQDFTVPGQVPEEEASHNGQRRGLPKAVCMNGTEAAQLSTKSRAEGRAPNPARKACSASSKIRRLSACKQQ [L105R] and MEVVDPQQLGMFTEGELMSVGMDTFIHRIDSTEVIYQPRRKRAKLIGKYLMGDLLGEGSYGKVKEVLDSETLCRRAVKILKKKKLRRIPNGEANVKKEIQLLRRGRHKNVIQLVDVLYNEEKQKMYMVMEYCVCGMQEMLDSVPEKRFPVCQAHGYFCQLIDGLEYLHSQGIVHKDIKPGNLLLTTGGTLKISDLGVAEALHPFAADDTCRTSQGSPAFQPPEIANGLDTFSGFKVDIWSAGVTLYNITTGLYPFEGDNIYKLFENIGKGSYAIPGDCGPPLSDLLKGMLEYEPAKRFSIRQIRQHSWFRKKHPPAEAPVPIPPSPDTKDRWRSMTVVPYLEDLHGADEDEDLFDIEDDIIYTQDFTVPGQVPEEEASHNGQRRGLPKAVCMNGTEAAQLSTKSRAEGRAPNPARKACSASSKIRRLSACKQQ [L105G] are within error of each other in STK11 functional score: 0.653 ± 0.31 for the first, 0.712 ± 0.15 for the second.

First: MEVVDPQQLGMFTEGELMSVGMDTFIHRIDSTEVIYQPRRKRAKLIGKYLMGDLLGEGSYGKVKEVLDSETLCRRAVKILKKKKLRRIPNGEANVKKEIQLLRRCRHKNVIQLVDVLYNEEKQKMYMVMEYCVCGMQEMLDSVPEKRFPVCQAHGYFCQLIDGLEYLHSQGIVHKDIKPGNLLLTTGGTLKISDLGVAEALHPFAADDTCRTSQGSPAFQPPEIANGLDTFSGFKVDIWSAGVTLYNITTGLYPFEGDNIYKLFENIGKGSYAIPGDCGPPLSDLLKGMLEYEPAKRFSIRQIRQHSWFRKKHPPAEAPVPIPPSPDTKDRWRSMTVVPYLEDLHGADEDEDLFDIEDDIIYTQDFTVPGQVPEEEASHNGQRRGLPKAVCMNGTEAAQLSTKSRAEGRAPNPARKACSASSKIRRLSACKQQ [L105C]
Second: MEVVDPQQLGMFTEGELMSVGMDTFIHRIDSTEVIYQPRRKRAKLIGKYLMGDLLGEGSYGKVKEVLDSETLCRRAVKILKKKKLRRIPNGEANVKKEIQLLRRSRHKNVIQLVDVLYNEEKQKMYMVMEYCVCGMQEMLDSVPEKRFPVCQAHGYFCQLIDGLEYLHSQGIVHKDIKPGNLLLTTGGTLKISDLGVAEALHPFAADDTCRTSQGSPAFQPPEIANGLDTFSGFKVDIWSAGVTLYNITTGLYPFEGDNIYKLFENIGKGSYAIPGDCGPPLSDLLKGMLEYEPAKRFSIRQIRQHSWFRKKHPPAEAPVPIPPSPDTKDRWRSMTVVPYLEDLHGADEDEDLFDIEDDIIYTQDFTVPGQVPEEEASHNGQRRGLPKAVCMNGTEAAQLSTKSRAEGRAPNPARKACSASSKIRRLSACKQQ [L105S]
The STK11 functional score of the first is higher: 1.53 ± 0.064 for the first, 1.29 ± 0.15 for the second.

— the supplement of paper PMC12338614
